Assay results from publication PMC3162888.

B1: AaET (Aedes aegypti) (protein)
chain: IVGGFQIDIAEVPHQVSLQRSGRHFCGGSIISPRWVLTAAHCTTNTDPAAYTIRAGSTDRTNGGIIVKVKSVIPHPQYNGDTYNYDFSLLELDESIGFSRSIEAIALPEASETVADGAMCTVSGWGDTKNVFEMNTLLRAVNVPSYNQAECAAALVNVVPVTEQMICAGYAAGGKDSCQGDSGGPLVSGDKLVGVVSWGKGCALPNLPGVYARVSTVRQWIREVSEV
B2: AaSPVII (Aedes aegypti) (protein)
chain: VVGGYEVDVKDIPFQVSLQNTYGHFCGGSIISERWVLTAGHCASPRDHGLKVRVGSSQHASGGQLYKVAKIHQHPQYNPSTIDYDFCLLELEKAITFSEVSQSVDLPKLNDPVQDGTLLQVSGWGYTQNPSESRDVLRATNVPAVSQKECSRAYQGTNAVTDRMVCAGYKEGGKDSCQGDSGGPLVEGNTLVGVVSWGVGCAQAGYPGVYSRVAAVRDWVAEVSGV

Substrate: N=C(N)NCCCC(NC(=O)c1ccccc1)C(=O)Nc1ccc([N+](=O)[O-])cc1
Test: purified protein
Settings: 20 mM TRIS-HCl, 10 mM CaCl2, pH 8.0, 24°C

| Protein | Km (20 nM enzyme) [µM] | kcat (20 nM enzyme) [s⁻¹] | kcat/Km (20 nM enzyme) [M⁻¹ s⁻¹] | Km (50 nM enzyme) [µM] | kcat (50 nM enzyme) [s⁻¹] | kcat/Km (50 nM enzyme) [M⁻¹ s⁻¹] |
| --- | --- | --- | --- | --- | --- | --- |
| B1 | 63.0 ± 1.3 | 2.03 | 32300 | – | – | – |
| B2 | – | – | – | 19.2 ± 1.0 | 0.35 | 18500 |
